Where a chain is given by its changes, count along the chain named.
B1: PcOxP_DB03_B07 (scFv, V domains shown)
VH: EVQLLESGGGLVQPGGSLRLSCAASGFGFSDFYMEWVRQAPGKGLEWVAASRNKANDYTTEYADSVKGRFTISRDNSKNTLYLQMNSLRAEDTAVYYCARDYYSSSYWYFDVWGQGTLVTVSS
VL: DIVMTQSPDSLAVSLGERATINCTASESLYSSKHKVHYLAWYQQKPGQPPKLLIYGASNRYIGVPDRFSGSGSGTDFTLTISSLQAEDVAVYYCAQFYSYPLTFGGGTKVEIK
notes: scFv in periplasmic extract
B2: PcOxP_DB02_H08 (scFv, V domains shown)
VH: B1 VH with G28T, F32A, S104G, S106H
VL: B1 VL with A25S, E27Q, K35N, V36K
notes: scFv in periplasmic extract
B3: PcOxP_DB03_A12 (scFv, V domains shown)
VH: B1 VH with G28T, F32G, E61A, S104G
VL: B1 VL with A95G
notes: scFv in periplasmic extract
B4: PcOxP_DB03_C10 (scFv, V domains shown)
VH: B1 VH with G28T, D31S, F32Y, D57E, S104G
VL: B1 VL with S58G
notes: scFv in periplasmic extract
B5: PcOxP_DB03_E03 (scFv, V domains shown)
VH: B1 VH with G28T, F29E, S104G
VL: B1 VL with T24K, A25S, E27Q, Y30L, S31Y, H34N, K35N, H37N, A57E, S99E
notes: scFv in periplasmic extract
B6: PcOxP_DB03_A04 (scFv, V domains shown)
VH: B1 VH with F27D, G28T, T59S, S104G
VL: B1 VL with T24E
notes: scFv in periplasmic extract
B7: PcOxP_DB03_B12 (scFv, V domains shown)
VH: B1 VH with G28Q, N53W, S104G
VL: B1 VL
notes: scFv in periplasmic extract
B8: PcOxP_DB03_B06 (scFv, V domains shown)
VH: B1 VH with F27I, G28T, A55Y, S104G
VL: B1 VL with I62T
notes: scFv in periplasmic extract
B9: PcOxP_DB03_B09 (scFv, V domains shown)
VH: B1 VH with G28T, D31S, F32Y, S104G
VL: B1 VL with S58A
notes: scFv in periplasmic extract
B10: PcOxP_DB03_B01 (scFv, V domains shown)
VH: B1 VH with G28T, D31S, F32Y, K54T, S104G
VL: B1 VL with Y61E
notes: scFv in periplasmic extract
B11: PcOxP_DB03_D03 (scFv, V domains shown)
VH: B1 VH with G28T, F32Y, S104F
VL: B1 VL
notes: scFv in periplasmic extract
B12: PcOxP_DB03_E04 (scFv, V domains shown)
VH: B1 VH with G28T, D31S, F32Y, S104G
VL: B1 VL with I62L
notes: scFv in periplasmic extract
B13: PcOxP_DB03_A07 (scFv, V domains shown)
VH: B1 VH with G28H, S104G
VL: B1 VL with S28N, I62S
notes: scFv in periplasmic extract
B14: PcOxP_DB03_C04 (scFv, V domains shown)
VH: B1 VH with G28T, S104G, F110N
VL: B1 VL with S99T
notes: scFv in periplasmic extract
B15: PcOxP_DB03_C08 (scFv, V domains shown)
VH: B1 VH with F27S, G28T, Y58F, S104G
VL: B1 VL with I62S, S99H
notes: scFv in periplasmic extract

Assays:
Assay in all cases: scFv ELISA
[1] = biological target: T1, Peptide 4: Biotin-AGGGGSGGGGSGGGGSAAA-Tyr-acid (N-terminal biotin; C-terminal acid)
T1 construct: Control peptide without PC
T1 peptide: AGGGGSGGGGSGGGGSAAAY
Method in brief: (§1)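 Bound scFv was read as OD450 after HRP–anti-V5 detection, TMB development and HCl stop. PPE with BSA was incubated 1 h at RT on BSA-blocked wells coated overnight at 4° C. with peptide, or on streptavidin wells loaded 1 h with biotinylated PC-peptides at 1 μg/mL.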

[2] = biological target: T2, Peptide 8: Biotin-AEAAAKEAAAKEAAAKEAAAKAAA-Tyr-acid (N-terminal biotin; C-terminal acid)
T2 construct: Control peptide without PC
T2 peptide: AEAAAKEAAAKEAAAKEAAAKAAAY
Method in brief: as §1

[3] = biological target: Peptide 5: Biotin-…-[Tyr(PC)]-acid
[4] = biological target: BSA (UniProt P02769)
[5] = biological target: Peptide 1: Biotin-…-[Tyr(PC)]-acid

Sequence of BSA (P02769 25-607 limits assumed): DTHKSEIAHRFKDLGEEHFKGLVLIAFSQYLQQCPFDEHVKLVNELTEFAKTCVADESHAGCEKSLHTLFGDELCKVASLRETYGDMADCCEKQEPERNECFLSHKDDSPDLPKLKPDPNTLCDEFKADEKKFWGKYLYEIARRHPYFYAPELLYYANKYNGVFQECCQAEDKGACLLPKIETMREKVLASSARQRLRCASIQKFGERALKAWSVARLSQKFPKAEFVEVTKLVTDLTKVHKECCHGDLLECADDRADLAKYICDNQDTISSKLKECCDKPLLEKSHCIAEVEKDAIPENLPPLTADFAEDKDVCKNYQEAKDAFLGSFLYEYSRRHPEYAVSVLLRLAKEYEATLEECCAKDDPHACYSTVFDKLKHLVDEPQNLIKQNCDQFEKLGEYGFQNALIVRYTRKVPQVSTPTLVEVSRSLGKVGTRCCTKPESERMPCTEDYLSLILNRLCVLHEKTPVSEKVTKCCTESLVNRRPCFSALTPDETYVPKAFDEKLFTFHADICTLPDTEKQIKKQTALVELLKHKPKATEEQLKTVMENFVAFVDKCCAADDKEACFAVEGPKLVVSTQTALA

| Binder | OD450 [1] | OD450 [2] | OD450 [3] | OD450 [4] | OD450 [5] |
| --- | --- | --- | --- | --- | --- |
| B1 | 0.06 OD450 | 0.05 OD450 | 0.81 OD450 | 0.12 OD450 | 0.66 OD450 |
| B2 | 0.04 OD450 | 0.06 OD450 | 1.34 OD450 | 0.07 OD450 | 0.4 OD450 |
| B3 | 0.06 OD450 | 0.05 OD450 | 1.67 OD450 | 0.07 OD450 | 2.28 OD450 |
| B4 | 0.05 OD450 | 0.04 OD450 | 1.1 OD450 | 0.07 OD450 | 1.1 OD450 |
| B5 | 0.04 OD450 | 0.04 OD450 | 0.79 OD450 | 0.05 OD450 | 0.27 OD450 |
| B6 | 0.04 OD450 | 0.04 OD450 | 0.47 OD450 | 0.06 OD450 | 0.19 OD450 |
| B7 | 0.05 OD450 | 0.05 OD450 | 0.85 OD450 | 0.06 OD450 | 1.21 OD450 |
| B8 | 0.04 OD450 | 0.05 OD450 | 1.01 OD450 | 0.06 OD450 | 0.68 OD450 |
| B9 | 0.05 OD450 | 0.05 OD450 | 0.89 OD450 | 0.08 OD450 | 1.09 OD450 |
| B10 | 0.04 OD450 | 0.04 OD450 | 0.64 OD450 | 0.06 OD450 | 0.21 OD450 |
| B11 | 0.04 OD450 | 0.04 OD450 | 1.11 OD450 | 0.1 OD450 | 0.73 OD450 |
| B12 | 0.06 OD450 | 0.04 OD450 | 1.2 OD450 | 0.08 OD450 | 0.96 OD450 |
| B13 | 0.04 OD450 | 0.04 OD450 | 1.01 OD450 | 0.06 OD450 | 0.94 OD450 |
| B14 | 0.04 OD450 | 0.04 OD450 | 1.72 OD450 | 0.07 OD450 | 2.11 OD450 |
| B15 | 0.05 OD450 | 0.05 OD450 | 0.9 OD450 | 0.06 OD450 | 0.98 OD450 |

Source: patent publication US20250320312A1 (OXITOPE PHARMA B V, published 2025)
